Columns and labels:
[1] = biological target: T1, human HER3, full length, on cells (T47D, MCF7, transfected HEK293) (human, UniProt P21860 20-1342); assay: FACS on T47D cells, 0 minutes incubation
T1 construct: endogenous on T47D and MCF7 tumor cells, transient full length in HEK293 (formalin fixed for IHC); also called expressed HER3 ECD

[2] = biological target: T2, HER3 ECD-HRG complex (Heregulin-activated Her-3 ECD) (human, UniProt P21860 20-643); assay: SPR Biacore 3000, antibody captured, Biacore two-state model, kd1, 25 C; kd1, first step of the two-state fit; not the kd2 used for KDapp
T2 construct: receptor-ligand complex made by preincubating HER3 ECD with a five-fold molar excess of Heregulin; also called Heregulin/Her-3 ECD; Heregulin-complexed Her-3 ECD
Protocol: A CM5 series sensor was mounted into the system and was normalized in HBS-ET buffer (10 mM HEPES pH 7.4, 150 mM NaCl, 3 mM EDTA, 0.005% w/v Tween 20) according to the manufacturer's instructions. The sample buffer was the system buffer supplemented with 1 mg/ml CMD (Carboxymethyldextran). The system operated at 25° C. 10000 RU RAM-Fey (relative units of Fey-fragment Rabbit Anti-Mouse IgG/Jackson Laboratories) were immobilized according to the manufacturer's instructions using EDC/NHS chemistry on all flow cells. The sensor was deactivated using 1M ethanolamine.

[3] = biological target: T3, HER1 (EGFR) ECD peptide hairpin, overlapping immobilized 15-mer peptides (human, UniProt P00533 265-283, limits assumed); assay: CelluSpots array of overlapping 15-mer peptides
T3 construct: domain: peptide hairpin (β-hairpin); CelluSpots 15-mer library; cysteines replaced by serines; also called hairpin motive in EGFR
T3 peptide (looked up): PPLMLYNPTTYQMDVNPEG

[4] = biological target: T4, HER2 ECD peptide hairpin, overlapping immobilized 15-mer peptides (human, UniProt P04626 269-287, limits assumed); assay: CelluSpots array of overlapping 15-mer peptides
T4 construct: domain: peptide hairpin (β-hairpin); CelluSpots 15-mer library; cysteines replaced by serines; also called hairpin motive in the HER2 ECD
T4 peptide (looked up): PALVTYNTDTFESMPNPEG

[5] = biological target: T5, recombinant Thermus thermophilus SlyD FKBP-Her3 (TtSlyD-FKBP-Her3); assay: SPR, antibody captured
T5 construct: expressed in E. coli, the N-terminal methionine can be present or not; also called thermo SlyD-Her3; T.T.SlyD-Her3
T5 chain: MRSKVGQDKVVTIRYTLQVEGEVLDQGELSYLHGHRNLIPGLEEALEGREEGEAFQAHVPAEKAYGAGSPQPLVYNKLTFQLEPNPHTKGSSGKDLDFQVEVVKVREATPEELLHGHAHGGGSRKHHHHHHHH
Protocol: In all assay the test antibodies were captured. The system was under the control of the software version V1.1. The instrument buffer was HBS-EP (10 mM HEPES (pH 7.4), 150 mM NaCl, 1 mM EDTA, 0.05% (w/v) P20). The system operated at 25° C. 30 μg/ml Rabbit polyclonal antibody (RAM IgG, (Rabbit anti Mouse IgG with Fc gamma specificity) GE Healthcare) in 10 mM sodium acetate buffer (pH 4.5) was immobilized using EDC/NHS chemistry according to the manufacturer's instructions on the spots 1, 2, 4 and 5 in the flow cells 1, 2, 3 and 4. The sensor was saturated using 1M ethanolamine. In each flow cell, referenced signals were calculated using spots 1-2 and spots 5-4, spot 3 served as a blanc control. […] The antibody capture level (CL) in response units was monitored. […] Thereafter, the antibody-antigen complex dissociation signal was recorded for 5 min. […] The recorded signal shortly before the end of the injection of the antigen was denoted as binding late (BL) in response units. The recorded signal shortly before the end of the recording of the dissociation is denoted as stability late (SL) in response units. The dissociation rate constants were determined calculated The antibody-antigen complex stability in minutes was calculated with the following formula: […]. The Molar Ratio was calculated with the formula: MW (antibody)/MW (antigen) *BL (antigen)/CL (antibody). […]

B1: anti-HER3 antibody M-08-11 (antibody, V domains shown)
VH: QAYLQQSGAELMRPGASVRMSCQASGYTFTSYTIHWLKQTPRQGLEWIGAIYPRNGDFSYNQKFKDKASLTVDTSSSTAYMHLSSLTSEDSAVYFCARTINYGDWFAYWGQGTLVTVSA
VL: DIQMIQSPASLFVSEGETVIITCRASENIYSNLAWYHQKKGKSPQVLVYAAIKLADGVPLRFSGSGSGTQFSLKINSLQSEDFGSYYCQHFWGPPYTFGSGTNLEIK
notes: mouse monoclonal antibody from hybridoma, tested as hybridoma supernatant or as antibody; also called M-011
fold binding level with HRG against without HRG [1]: ≥ 2 fold | koff [2]: 0.0502 s⁻¹ | binding result [3]: no binding (tested: 1 µg/mL) | binding result [4]: no binding (tested: 1 µg/mL) | ratio Ka (Thermus thermophilus SlyD FKBP-Her3)/Ka (HER3-ECD) [5]: ≥ 1.5 ratio | ratio MR (Thermus thermophilus SlyD FKBP-Her3)/MR (HER3-ECD) [5]: ≥ 2 ratio

From patent US20180094062A1 (Hoffmann-La Roche, published 2018)
